These results are taken from patent publication US6777176 (ARPIDA, dated 2004).

The chains are these.
B1: peptide 31 (peptide)
peptide: MRLLKTLCFGLCG
B2: peptide 25 (peptide)
peptide: RHRTLF
B3: peptide 17 (peptide)
peptide: SSLRGHRWVY
B4: peptide 26 (peptide)
peptide: RHYLLF
B5: peptide 22 (peptide)
peptide: DGARLHYLF
B6: peptide 27 (peptide)
peptide: RHITSL
B7: peptide 28 (peptide)
peptide: RHITLF
B8: peptide 14 (peptide)
peptide: GLRFGKTRVHYLVLG
B9: peptide 15 (peptide)
peptide: SGRKSTRVHHWLLVL
B10: peptide 2 (peptide)
peptide: KKFALRK
B11: peptide 1 (peptide)
peptide: KKFHLRK
B12: peptide 9 (peptide)
peptide: KKFHIRKR
B13: peptide 13 (peptide)
peptide: WHKR
B14: peptide 8 (peptide)
peptide: KKWHKRKK
B15: peptide 12 (peptide)
peptide: WHKR

The target in one assay is T1, enzyme I (phosphoenolpyruvate-protein-phosphatase, EC 2.7.3.9) of the bacterial phosphotransferase system (E. coli, UniProt P08839 1-575). In words: cell-based or functional assay.
Turning to B1, the “inhibition IC50” value was 4900 µM. For B2, the “inhibition IC50” value was found to be 530 µM and the “uncoupling P1/peptide/h” value worked out at 0.23 P1/peptide/h. Regarding B3, the “uncoupling P1/peptide/h” value stood at 0.07 P1/peptide/h. Consider B4, for which the “inhibition IC50” value came to 300 µM and the “uncoupling P1/peptide/h” value was found to be 0.29 P1/peptide/h. On the same counts, the results for B5 are 820 µM and 0.05 P1/peptide/h. In the case of B6, the “inhibition IC50” value was determined as 440 µM and the “uncoupling P1/peptide/h” value is 0.215 P1/peptide/h. With B7, the “inhibition IC50” value came to 160 µM and the “uncoupling P1/peptide/h” value was found to be 0.31 P1/peptide/h.

The next assay deals with T1, enzyme I …. In words: cell-based or functional assay. The source holds these as a separate data set.
Regarding B8, the “inhibition IC50 (µM) of in vitro phosphotransferase activity” value (shortened to “inhibition IC50 (µM)”) was 650 µM. As to B9, the “inhibition IC50 (µM)” value came to 1380 µM. As for B10, the “inhibition IC50 (µM)” value came to 60 µM and the “uncoupling P1/peptide (x IC50/h)” value was 6.6 x IC50/h. For the molecule B11, the “inhibition IC50 (µM)” value is 25 µM and the “uncoupling P1/peptide (x IC50/h)” value came out at 3.2 x IC50/h. The like results for B12 were, in that order, 1200 µM and 132 x IC50/h. Regarding B13, the “inhibition IC50 (µM)” value stood at 500 µM. For the molecule B14, the “inhibition IC50 (µM)” value worked out at 375 µM and the “uncoupling P1/peptide (x IC50/h)” value came to 64.2 x IC50/h.

Consider B15, for which the “inhibition IC50 (µM)” value was 410 µM.
